Experimental data as given in publication PMC7978432.

Target: SARS-CoV-2 S2GΔHR2-5GS-1TD0 (SARS-CoV-2 | not stated) (UniProt P0DTC2)
Test: native gel or EMSA

“SARS-CoV-2 S2GΔHR2-5GS-1TD0 (from UniProt P0DTC2 14-1149)” was tested. Which stoichiometry N did it give?
The stoichiometry N was 3.
